Assay results published in paper PMC3142331 (Molecular cell, 2011).
Square brackets hold non-standard residues; d marks the D form. Ends that are not written are not given here. fluorescein = fluorescein label (fluorescent) on the peptide N-terminus; pS = N[C@@H](COP(=O)(O)O)C(=O)O

B1: Mce R330A (domain or fragment)
chain: not shown
B2: Mce R330A/K331A/R386A (domain or fragment)
chain: not shown
B3: Mce R330A/K331A (domain or fragment)
chain: not shown
B4: Mce C383Y (domain or fragment)
chain: not shown
B5: Mce-K294A (domain or fragment)
chain: not shown
B6: Mce-C375R (domain or fragment)
chain: not shown

Tests used:
[1] = target: tetraheptad CTD-Ser5-PO4 peptide (phosphorylated at Ser5 (CTD-Ser5-PO4)); test: cell-based or functional assay
[2] = target: T1, fluorescein labeled phosphorylated CTD peptide (Fluor-S2P3T4S5PP6S7Y1S2PP3T4S5); test: fluorescence polarisation
T1 peptide: fluorescein-SPT[pS]PSY[pS]PTS

| Binder | fold stimulation of guanylylation by CTD Ser5-PO4 [1] | other results |
| --- | --- | --- |
| B1 | 2.1 fold | – |
| B2 | 1.6 fold | – |
| B3 | 1.9 fold | – |
| B4 | – | fold decrease in affinity against wild-type Mce [2]: 1.9 fold |
| B5 | – | fold reduction of affinity against wild-type Mce [2]: ~1.8 fold |
| B6 | – | fold stimulation of guanylylation in the presence of CTD Ser5-PO4 [1]: 5.9 fold |
